Laboratory results taken from article PMC8455617 (2021).
“And” between values parts separate entries of the source, which are not always exact repeats. Equal entries are not always repeated.

T1: citrate synthase, mitochondrial (Sus scrofa, UniProt P00889)
T1 chain: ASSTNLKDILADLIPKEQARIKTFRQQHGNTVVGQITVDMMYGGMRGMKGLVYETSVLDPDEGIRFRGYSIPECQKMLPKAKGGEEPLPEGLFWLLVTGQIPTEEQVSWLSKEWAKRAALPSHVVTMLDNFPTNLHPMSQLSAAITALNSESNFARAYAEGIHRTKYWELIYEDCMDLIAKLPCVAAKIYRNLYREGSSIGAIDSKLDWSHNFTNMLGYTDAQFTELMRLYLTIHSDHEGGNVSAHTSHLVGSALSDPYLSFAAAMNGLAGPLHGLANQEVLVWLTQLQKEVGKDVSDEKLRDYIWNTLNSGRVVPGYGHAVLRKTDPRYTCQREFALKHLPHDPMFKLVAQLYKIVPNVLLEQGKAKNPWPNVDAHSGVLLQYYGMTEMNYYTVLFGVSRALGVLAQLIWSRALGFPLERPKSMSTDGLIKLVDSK


Molecular target: T1, citrate synthase, mitochondrial
Assay: MST

Binder | Kd
malate dehydrogenase, mitochondrial (protein, 10 mM succinyl-CoA) AKVAVLGASGGIGQPLSLLLKNSPLVSRLTLYDIAHTPGVAADLSHIETRATVKGYLGPEQLPDCLKGCDVVVIPAGVPRKPGMTRDDLFNTNATIVATLTAACAQHCPDAMICIISNPVNSTIPITAEVFKKHGVYNPNKIFGVTTLDIVRANAFVAELKGLDPARVSVPVIGGHAGKTIIPLISQCTPKVDFPQDQLSTLTGRIQEAGTEVVKAKAGAGSATLSMAYAGARFVFSLVDAMNGKEGVVECSFVKSQETDCPYFSTPLLLGKKGIEKNLGIGKISPFEEKMIAEAIPELKASIKKGEEFVKNMK | 1970 nM
malate dehydrogenase, mitochondrial (protein, 10 mM citrate) AKVAVLGASGGIGQPLSLLLKNSPLVSRLTLYDIAHTPGVAADLSHIETRATVKGYLGPEQLPDCLKGCDVVVIPAGVPRKPGMTRDDLFNTNATIVATLTAACAQHCPDAMICIISNPVNSTIPITAEVFKKHGVYNPNKIFGVTTLDIVRANAFVAELKGLDPARVSVPVIGGHAGKTIIPLISQCTPKVDFPQDQLSTLTGRIQEAGTEVVKAKAGAGSATLSMAYAGARFVFSLVDAMNGKEGVVECSFVKSQETDCPYFSTPLLLGKKGIEKNLGIGKISPFEEKMIAEAIPELKASIKKGEEFVKNMK | 25100 nM
malate dehydrogenase, mitochondrial (protein, 10 mM oxaloacetate and NADH) AKVAVLGASGGIGQPLSLLLKNSPLVSRLTLYDIAHTPGVAADLSHIETRATVKGYLGPEQLPDCLKGCDVVVIPAGVPRKPGMTRDDLFNTNATIVATLTAACAQHCPDAMICIISNPVNSTIPITAEVFKKHGVYNPNKIFGVTTLDIVRANAFVAELKGLDPARVSVPVIGGHAGKTIIPLISQCTPKVDFPQDQLSTLTGRIQEAGTEVVKAKAGAGSATLSMAYAGARFVFSLVDAMNGKEGVVECSFVKSQETDCPYFSTPLLLGKKGIEKNLGIGKISPFEEKMIAEAIPELKASIKKGEEFVKNMK | 2010 nM
malate dehydrogenase, mitochondrial (protein, 5 mM ATP) AKVAVLGASGGIGQPLSLLLKNSPLVSRLTLYDIAHTPGVAADLSHIETRATVKGYLGPEQLPDCLKGCDVVVIPAGVPRKPGMTRDDLFNTNATIVATLTAACAQHCPDAMICIISNPVNSTIPITAEVFKKHGVYNPNKIFGVTTLDIVRANAFVAELKGLDPARVSVPVIGGHAGKTIIPLISQCTPKVDFPQDQLSTLTGRIQEAGTEVVKAKAGAGSATLSMAYAGARFVFSLVDAMNGKEGVVECSFVKSQETDCPYFSTPLLLGKKGIEKNLGIGKISPFEEKMIAEAIPELKASIKKGEEFVKNMK | 770 nM
malate dehydrogenase, mitochondrial (protein, 10 mM oxaloacetate and acetyl-CoA) AKVAVLGASGGIGQPLSLLLKNSPLVSRLTLYDIAHTPGVAADLSHIETRATVKGYLGPEQLPDCLKGCDVVVIPAGVPRKPGMTRDDLFNTNATIVATLTAACAQHCPDAMICIISNPVNSTIPITAEVFKKHGVYNPNKIFGVTTLDIVRANAFVAELKGLDPARVSVPVIGGHAGKTIIPLISQCTPKVDFPQDQLSTLTGRIQEAGTEVVKAKAGAGSATLSMAYAGARFVFSLVDAMNGKEGVVECSFVKSQETDCPYFSTPLLLGKKGIEKNLGIGKISPFEEKMIAEAIPELKASIKKGEEFVKNMK | 520 nM
malate dehydrogenase, mitochondrial (protein, 10 mM AMP) AKVAVLGASGGIGQPLSLLLKNSPLVSRLTLYDIAHTPGVAADLSHIETRATVKGYLGPEQLPDCLKGCDVVVIPAGVPRKPGMTRDDLFNTNATIVATLTAACAQHCPDAMICIISNPVNSTIPITAEVFKKHGVYNPNKIFGVTTLDIVRANAFVAELKGLDPARVSVPVIGGHAGKTIIPLISQCTPKVDFPQDQLSTLTGRIQEAGTEVVKAKAGAGSATLSMAYAGARFVFSLVDAMNGKEGVVECSFVKSQETDCPYFSTPLLLGKKGIEKNLGIGKISPFEEKMIAEAIPELKASIKKGEEFVKNMK | 3100 nM
malate dehydrogenase, mitochondrial (protein, 10 mM ATP) AKVAVLGASGGIGQPLSLLLKNSPLVSRLTLYDIAHTPGVAADLSHIETRATVKGYLGPEQLPDCLKGCDVVVIPAGVPRKPGMTRDDLFNTNATIVATLTAACAQHCPDAMICIISNPVNSTIPITAEVFKKHGVYNPNKIFGVTTLDIVRANAFVAELKGLDPARVSVPVIGGHAGKTIIPLISQCTPKVDFPQDQLSTLTGRIQEAGTEVVKAKAGAGSATLSMAYAGARFVFSLVDAMNGKEGVVECSFVKSQETDCPYFSTPLLLGKKGIEKNLGIGKISPFEEKMIAEAIPELKASIKKGEEFVKNMK | 760 nM and 460 nM
malate dehydrogenase, mitochondrial (protein, 10 mM malate) AKVAVLGASGGIGQPLSLLLKNSPLVSRLTLYDIAHTPGVAADLSHIETRATVKGYLGPEQLPDCLKGCDVVVIPAGVPRKPGMTRDDLFNTNATIVATLTAACAQHCPDAMICIISNPVNSTIPITAEVFKKHGVYNPNKIFGVTTLDIVRANAFVAELKGLDPARVSVPVIGGHAGKTIIPLISQCTPKVDFPQDQLSTLTGRIQEAGTEVVKAKAGAGSATLSMAYAGARFVFSLVDAMNGKEGVVECSFVKSQETDCPYFSTPLLLGKKGIEKNLGIGKISPFEEKMIAEAIPELKASIKKGEEFVKNMK | 1850 nM and 1800 nM
malate dehydrogenase, mitochondrial (protein, 10 mM NADH) AKVAVLGASGGIGQPLSLLLKNSPLVSRLTLYDIAHTPGVAADLSHIETRATVKGYLGPEQLPDCLKGCDVVVIPAGVPRKPGMTRDDLFNTNATIVATLTAACAQHCPDAMICIISNPVNSTIPITAEVFKKHGVYNPNKIFGVTTLDIVRANAFVAELKGLDPARVSVPVIGGHAGKTIIPLISQCTPKVDFPQDQLSTLTGRIQEAGTEVVKAKAGAGSATLSMAYAGARFVFSLVDAMNGKEGVVECSFVKSQETDCPYFSTPLLLGKKGIEKNLGIGKISPFEEKMIAEAIPELKASIKKGEEFVKNMK | 7500 nM
malate dehydrogenase, mitochondrial (protein, 10 mM CoA) AKVAVLGASGGIGQPLSLLLKNSPLVSRLTLYDIAHTPGVAADLSHIETRATVKGYLGPEQLPDCLKGCDVVVIPAGVPRKPGMTRDDLFNTNATIVATLTAACAQHCPDAMICIISNPVNSTIPITAEVFKKHGVYNPNKIFGVTTLDIVRANAFVAELKGLDPARVSVPVIGGHAGKTIIPLISQCTPKVDFPQDQLSTLTGRIQEAGTEVVKAKAGAGSATLSMAYAGARFVFSLVDAMNGKEGVVECSFVKSQETDCPYFSTPLLLGKKGIEKNLGIGKISPFEEKMIAEAIPELKASIKKGEEFVKNMK | 2320 nM
malate dehydrogenase, mitochondrial (protein, 10 mM ADP) AKVAVLGASGGIGQPLSLLLKNSPLVSRLTLYDIAHTPGVAADLSHIETRATVKGYLGPEQLPDCLKGCDVVVIPAGVPRKPGMTRDDLFNTNATIVATLTAACAQHCPDAMICIISNPVNSTIPITAEVFKKHGVYNPNKIFGVTTLDIVRANAFVAELKGLDPARVSVPVIGGHAGKTIIPLISQCTPKVDFPQDQLSTLTGRIQEAGTEVVKAKAGAGSATLSMAYAGARFVFSLVDAMNGKEGVVECSFVKSQETDCPYFSTPLLLGKKGIEKNLGIGKISPFEEKMIAEAIPELKASIKKGEEFVKNMK | 2240 nM
malate dehydrogenase, mitochondrial (protein, 10 mM oxaloacetate) AKVAVLGASGGIGQPLSLLLKNSPLVSRLTLYDIAHTPGVAADLSHIETRATVKGYLGPEQLPDCLKGCDVVVIPAGVPRKPGMTRDDLFNTNATIVATLTAACAQHCPDAMICIISNPVNSTIPITAEVFKKHGVYNPNKIFGVTTLDIVRANAFVAELKGLDPARVSVPVIGGHAGKTIIPLISQCTPKVDFPQDQLSTLTGRIQEAGTEVVKAKAGAGSATLSMAYAGARFVFSLVDAMNGKEGVVECSFVKSQETDCPYFSTPLLLGKKGIEKNLGIGKISPFEEKMIAEAIPELKASIKKGEEFVKNMK | 2230 nM
malate dehydrogenase, mitochondrial (protein, 1.25 mM ATP) AKVAVLGASGGIGQPLSLLLKNSPLVSRLTLYDIAHTPGVAADLSHIETRATVKGYLGPEQLPDCLKGCDVVVIPAGVPRKPGMTRDDLFNTNATIVATLTAACAQHCPDAMICIISNPVNSTIPITAEVFKKHGVYNPNKIFGVTTLDIVRANAFVAELKGLDPARVSVPVIGGHAGKTIIPLISQCTPKVDFPQDQLSTLTGRIQEAGTEVVKAKAGAGSATLSMAYAGARFVFSLVDAMNGKEGVVECSFVKSQETDCPYFSTPLLLGKKGIEKNLGIGKISPFEEKMIAEAIPELKASIKKGEEFVKNMK | 1060 nM
malate dehydrogenase, mitochondrial (protein, 10 mM succinate) AKVAVLGASGGIGQPLSLLLKNSPLVSRLTLYDIAHTPGVAADLSHIETRATVKGYLGPEQLPDCLKGCDVVVIPAGVPRKPGMTRDDLFNTNATIVATLTAACAQHCPDAMICIISNPVNSTIPITAEVFKKHGVYNPNKIFGVTTLDIVRANAFVAELKGLDPARVSVPVIGGHAGKTIIPLISQCTPKVDFPQDQLSTLTGRIQEAGTEVVKAKAGAGSATLSMAYAGARFVFSLVDAMNGKEGVVECSFVKSQETDCPYFSTPLLLGKKGIEKNLGIGKISPFEEKMIAEAIPELKASIKKGEEFVKNMK | 180 nM
malate dehydrogenase, mitochondrial (protein, 10 mM alpha-ketoglutarate) AKVAVLGASGGIGQPLSLLLKNSPLVSRLTLYDIAHTPGVAADLSHIETRATVKGYLGPEQLPDCLKGCDVVVIPAGVPRKPGMTRDDLFNTNATIVATLTAACAQHCPDAMICIISNPVNSTIPITAEVFKKHGVYNPNKIFGVTTLDIVRANAFVAELKGLDPARVSVPVIGGHAGKTIIPLISQCTPKVDFPQDQLSTLTGRIQEAGTEVVKAKAGAGSATLSMAYAGARFVFSLVDAMNGKEGVVECSFVKSQETDCPYFSTPLLLGKKGIEKNLGIGKISPFEEKMIAEAIPELKASIKKGEEFVKNMK | 1140 nM
malate dehydrogenase, mitochondrial (protein, 20 mM ATP) AKVAVLGASGGIGQPLSLLLKNSPLVSRLTLYDIAHTPGVAADLSHIETRATVKGYLGPEQLPDCLKGCDVVVIPAGVPRKPGMTRDDLFNTNATIVATLTAACAQHCPDAMICIISNPVNSTIPITAEVFKKHGVYNPNKIFGVTTLDIVRANAFVAELKGLDPARVSVPVIGGHAGKTIIPLISQCTPKVDFPQDQLSTLTGRIQEAGTEVVKAKAGAGSATLSMAYAGARFVFSLVDAMNGKEGVVECSFVKSQETDCPYFSTPLLLGKKGIEKNLGIGKISPFEEKMIAEAIPELKASIKKGEEFVKNMK | 720 nM
